This assay has as its target endogenous Xenopus type 1 inositol 1,4,5-trisphosphate receptor (Xenopus laevis (endogenous in oocytes)) (UniProt Q91908). Put plainly: co-IP.

Consider one substance from publication PMC2217211.

Chain of recombinant rat type 3 inositol 1,4,5-trisphosphate receptor, Q63269 1-2670 (Q63269 whole entry): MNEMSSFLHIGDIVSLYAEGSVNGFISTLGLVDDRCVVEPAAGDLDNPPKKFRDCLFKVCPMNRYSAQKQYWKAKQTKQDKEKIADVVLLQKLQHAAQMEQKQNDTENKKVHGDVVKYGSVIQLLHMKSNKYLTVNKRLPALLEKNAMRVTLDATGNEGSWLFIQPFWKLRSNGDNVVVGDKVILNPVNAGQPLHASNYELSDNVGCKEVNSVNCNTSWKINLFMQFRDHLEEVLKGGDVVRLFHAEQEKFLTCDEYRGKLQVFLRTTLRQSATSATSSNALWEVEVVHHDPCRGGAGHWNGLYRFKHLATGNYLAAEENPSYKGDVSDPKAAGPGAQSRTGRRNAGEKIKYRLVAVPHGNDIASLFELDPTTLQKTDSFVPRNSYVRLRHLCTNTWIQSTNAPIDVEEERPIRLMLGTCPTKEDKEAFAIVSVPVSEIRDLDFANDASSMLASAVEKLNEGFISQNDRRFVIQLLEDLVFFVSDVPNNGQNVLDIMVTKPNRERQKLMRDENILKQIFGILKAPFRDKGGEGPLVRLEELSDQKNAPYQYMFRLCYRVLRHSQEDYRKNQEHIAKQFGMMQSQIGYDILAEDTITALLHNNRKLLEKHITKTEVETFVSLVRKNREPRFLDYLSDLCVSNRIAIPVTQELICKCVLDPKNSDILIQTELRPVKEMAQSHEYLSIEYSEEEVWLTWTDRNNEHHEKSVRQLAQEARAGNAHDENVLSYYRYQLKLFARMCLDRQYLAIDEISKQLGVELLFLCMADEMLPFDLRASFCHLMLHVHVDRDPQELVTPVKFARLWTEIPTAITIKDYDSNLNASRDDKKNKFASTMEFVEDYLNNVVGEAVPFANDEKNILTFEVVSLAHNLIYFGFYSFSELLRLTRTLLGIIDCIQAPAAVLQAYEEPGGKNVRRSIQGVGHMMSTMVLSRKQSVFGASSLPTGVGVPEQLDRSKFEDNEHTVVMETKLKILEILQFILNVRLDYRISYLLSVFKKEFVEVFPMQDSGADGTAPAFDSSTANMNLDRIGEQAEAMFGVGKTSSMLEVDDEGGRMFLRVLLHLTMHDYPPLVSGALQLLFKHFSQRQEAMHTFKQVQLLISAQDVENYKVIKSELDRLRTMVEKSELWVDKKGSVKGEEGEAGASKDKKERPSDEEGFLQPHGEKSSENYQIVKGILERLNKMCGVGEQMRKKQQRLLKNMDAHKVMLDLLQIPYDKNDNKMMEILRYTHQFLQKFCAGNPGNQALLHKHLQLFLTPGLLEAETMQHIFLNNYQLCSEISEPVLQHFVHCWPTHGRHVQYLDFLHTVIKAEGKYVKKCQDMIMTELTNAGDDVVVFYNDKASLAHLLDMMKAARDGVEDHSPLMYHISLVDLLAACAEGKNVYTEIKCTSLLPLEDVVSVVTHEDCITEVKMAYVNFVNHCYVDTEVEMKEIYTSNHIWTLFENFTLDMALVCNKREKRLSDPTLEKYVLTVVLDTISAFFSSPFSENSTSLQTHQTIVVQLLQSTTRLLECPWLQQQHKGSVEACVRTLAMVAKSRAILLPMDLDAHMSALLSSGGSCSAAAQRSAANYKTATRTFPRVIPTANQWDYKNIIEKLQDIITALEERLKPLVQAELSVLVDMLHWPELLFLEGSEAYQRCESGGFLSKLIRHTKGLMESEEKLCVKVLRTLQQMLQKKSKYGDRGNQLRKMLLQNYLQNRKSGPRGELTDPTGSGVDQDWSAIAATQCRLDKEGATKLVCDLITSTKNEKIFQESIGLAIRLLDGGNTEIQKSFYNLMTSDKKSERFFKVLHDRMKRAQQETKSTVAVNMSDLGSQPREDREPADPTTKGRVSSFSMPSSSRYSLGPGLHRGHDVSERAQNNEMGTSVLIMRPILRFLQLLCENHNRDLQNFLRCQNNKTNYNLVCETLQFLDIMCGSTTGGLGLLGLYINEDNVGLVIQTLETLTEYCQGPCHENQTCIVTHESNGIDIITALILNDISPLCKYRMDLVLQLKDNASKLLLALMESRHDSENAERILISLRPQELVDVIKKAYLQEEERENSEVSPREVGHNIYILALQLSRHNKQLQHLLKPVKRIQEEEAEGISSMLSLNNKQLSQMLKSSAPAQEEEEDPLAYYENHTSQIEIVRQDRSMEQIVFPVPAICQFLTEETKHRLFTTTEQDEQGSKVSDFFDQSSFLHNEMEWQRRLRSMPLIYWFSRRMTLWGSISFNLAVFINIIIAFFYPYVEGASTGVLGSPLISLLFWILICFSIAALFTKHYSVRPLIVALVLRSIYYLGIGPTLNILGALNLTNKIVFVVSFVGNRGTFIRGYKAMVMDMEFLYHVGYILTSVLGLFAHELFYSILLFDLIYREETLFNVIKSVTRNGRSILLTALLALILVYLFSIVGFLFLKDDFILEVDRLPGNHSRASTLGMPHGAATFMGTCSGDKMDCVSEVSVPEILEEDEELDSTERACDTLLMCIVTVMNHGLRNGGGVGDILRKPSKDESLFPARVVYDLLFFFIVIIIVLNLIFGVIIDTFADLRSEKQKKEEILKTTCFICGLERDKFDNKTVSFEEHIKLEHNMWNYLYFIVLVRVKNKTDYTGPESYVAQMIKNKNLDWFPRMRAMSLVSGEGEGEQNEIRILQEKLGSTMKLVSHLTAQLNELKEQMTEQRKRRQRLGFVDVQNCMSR

“recombinant rat type 3 inositol 1,4,5-trisphosphate receptor, Q63269 1-2670” gave a percent of expressed r-InsP3R-3 in heteroligomers with X-InsP3R-1 of 7 to 10%.
